Biological target: the molecule itself
Assay: SEC; 2 mg of protein (20 mg/ml) on a calibrated Superdex 75 column (120 ml), 25 mM pH 8.0 Tris-HCl, 150 mM NaCl, 2 mM DTT

B1: Human SLX4BTB (residues 660–795) (domain or fragment, UniProt Q8IY92 660-795, looked up)
chain: QDKHPDRGGRTLLSLGLLVADFGAMVNNPHLSDVQFQTDSGEVLYAHKFVLYARCPLLIQYVNNEGFSAVEDGVLTQRVLLGDVSTEAARTFLHYLYTADTGLPPGLSSELSSLAHRFGVSELVHLCEQVPIATDS
stoichiometry N: 2

— article PMC4889959 (Nucleic Acids Research, 2016)
